We go through one molecule from patent publication US9062100B2, “Anti-human TROP-2 antibody having anti-tumor activity in vivo” (LIVTECH, INC., dated 2015).

Where no end group is shown, it is not given here.

For test [1], the target named is T1, human TROP-2 (hTROP-2) (human).
T1 chain: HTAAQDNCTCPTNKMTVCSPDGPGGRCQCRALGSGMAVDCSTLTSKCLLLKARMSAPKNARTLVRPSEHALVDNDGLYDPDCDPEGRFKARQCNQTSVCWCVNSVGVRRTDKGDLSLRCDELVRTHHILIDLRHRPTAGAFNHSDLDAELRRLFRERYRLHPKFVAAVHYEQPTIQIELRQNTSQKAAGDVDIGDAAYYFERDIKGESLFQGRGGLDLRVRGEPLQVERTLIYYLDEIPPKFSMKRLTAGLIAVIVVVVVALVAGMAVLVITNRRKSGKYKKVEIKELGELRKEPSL
In words: FACS on PK-59 cells.

Test [2] has as its target T1, human TROP-2 (hTROP-2). In words: FACS on BxPC-3 cells.
The target of test [3] is T2, Table 8 peptide No. 1 (human, not fully specified).
T2 peptide: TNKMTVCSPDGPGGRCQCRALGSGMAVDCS
In words: PEPSCAN CLIPS peptide ELISA. (In an ELISA, binding on a coated surface is turned into a signal by an enzyme label.)

Test [4] addresses T3, Table 8 peptide No. 2 (human, not fully specified).
T3 peptide: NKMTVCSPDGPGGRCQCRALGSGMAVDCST
The experiment in a line: PEPSCAN CLIPS peptide ELISA.

For test [5], the target named is T4, Table 8 peptide No. 3 (human, not fully specified).
T4 peptide: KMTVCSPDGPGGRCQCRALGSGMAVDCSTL
The experiment in a line: PEPSCAN CLIPS peptide ELISA.

For test [6], the target named is T5, Table 8 peptide No. 4 (human, not fully specified).
T5 peptide: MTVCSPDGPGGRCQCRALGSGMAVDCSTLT
The experiment in a line: PEPSCAN CLIPS peptide ELISA.

The target in test [7] is T6, Table 8 peptide No. 5 (human, not fully specified).
T6 peptide: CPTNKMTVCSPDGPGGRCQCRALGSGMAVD
The experiment in a line: PEPSCAN CLIPS peptide ELISA.

The target in test [8] is T7, Table 8 peptide No. 6 (human, not fully specified).
T7 peptide: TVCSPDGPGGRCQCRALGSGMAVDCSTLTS
In words: PEPSCAN CLIPS peptide ELISA.

Test [9] concerns the target T8, Table 8 peptide No. 7 (human, not fully specified).
T8 peptide: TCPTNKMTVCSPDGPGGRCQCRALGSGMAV
The experiment in a line: PEPSCAN CLIPS peptide ELISA.

Test [10] addresses T9, Table 8 peptide No. 8 (human, not fully specified).
T9 peptide: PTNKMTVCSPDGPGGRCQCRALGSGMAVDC
The experiment in a line: PEPSCAN CLIPS peptide ELISA.

Test [11] concerns the target T10, Table 8 peptide No. 9 (human, not fully specified).
T10 peptide: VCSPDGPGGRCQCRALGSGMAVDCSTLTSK
In words: PEPSCAN CLIPS peptide ELISA.

The target of test [12] is T11, Table 8 peptide No. 10 (human, not fully specified).
T11 peptide: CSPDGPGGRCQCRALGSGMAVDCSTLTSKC
In words: PEPSCAN CLIPS peptide ELISA.

Test [13] concerns the target T12, Table 8 peptide No. 13 (human, not fully specified).
T12 peptide: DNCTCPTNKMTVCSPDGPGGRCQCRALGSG
In words: PEPSCAN CLIPS peptide ELISA.

Test [14] has as its target T13, Table 8 peptide No. 14 (human, not fully specified).
T13 peptide: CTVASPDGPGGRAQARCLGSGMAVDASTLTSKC
The experiment in a line: PEPSCAN CLIPS peptide ELISA.

Test [15] addresses T14, Table 8 peptide No. 15 (human, not fully specified).
T14 peptide: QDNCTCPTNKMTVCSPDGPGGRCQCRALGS
The experiment in a line: PEPSCAN CLIPS peptide ELISA.

Test [16] concerns the target T15, Table 8 peptide No. 16 (human, not fully specified).
T15 peptide: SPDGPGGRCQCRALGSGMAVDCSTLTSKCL
The experiment in a line: PEPSCAN CLIPS peptide ELISA.

Test [17] deals with T16, Table 8 peptide No. 17 (human, not fully specified).
T16 peptide: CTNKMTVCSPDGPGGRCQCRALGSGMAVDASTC
The experiment in a line: PEPSCAN CLIPS peptide ELISA.

The target of test [18] is T17, Table 8 peptide No. 18 (human, not fully specified; cysteine pairing not given here).
T17 peptide: TVCSPDGPGGRCQCR
In words: PEPSCAN CLIPS peptide ELISA.

In test [19] the target is T18, Table 8 peptide No. 19 (human, not fully specified).
T18 peptide: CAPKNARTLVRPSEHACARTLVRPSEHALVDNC
In words: PEPSCAN CLIPS peptide ELISA.

Test [20] deals with T19, Table 8 peptide No. 20 (human, not fully specified).
T19 peptide: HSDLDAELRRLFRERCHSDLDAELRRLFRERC
The experiment in a line: PEPSCAN CLIPS peptide ELISA.

Test [21] concerns the target T20, recombinant protein of the extracellular region of hTROP-2 (human).
T20 sequence: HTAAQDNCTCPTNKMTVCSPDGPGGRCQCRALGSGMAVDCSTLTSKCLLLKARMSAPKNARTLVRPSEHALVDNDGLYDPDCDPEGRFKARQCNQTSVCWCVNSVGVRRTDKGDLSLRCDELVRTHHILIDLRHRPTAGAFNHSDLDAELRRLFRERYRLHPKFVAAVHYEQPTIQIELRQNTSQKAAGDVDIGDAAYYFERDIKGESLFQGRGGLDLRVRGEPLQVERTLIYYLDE
The experiment in a line: ELISA of free antibody after equilibration with antigen in solution.

B1: anti-hTROP-2 monoclonal antibody K5-107 (antibody, V domains shown)
VH: QVQLQQPGSELVRPGASVKLSCKASGYTFTSYWMHWVKQRHGQGLEWIGNIYPGGGYTNYDEKFKSKGTLTVDTSSSTAYMHLSSLTSEDSAVYYCTRSSVFDYWGQGTTLTVSS
VL: DILLTQSPAILSVSPGERVSFSCRASQNIGTSIHWFQQRTNGSPRLLIKYASESISGIPSRFSGSGSGTDFTLSINSVESEDIADYYCQQSNSWPFTFGSGTKLEIK
For B1, the “mean fluorescence intensity, times that with PE-labeled anti-mouse IgG only” value in [1] came out at 89 times; in test [2], 90 times. The “binding of K5-107” value worked out at 2760 in [3]; 2760 in test [4]; 2750 in [5]; 2730 in test [6]; 2720 in test [7]; 2720 in test [8]. Further, the “binding of K5-107” value in test [9] was found to be 2720; in test [10] it was 2690; in test [11], 2660; in test [12], 2660; in test [13], 1520; in [14] it was 1120. For the same molecule, the “binding of K5-107” value came to 874 in test [15]; 561 in test [16]; 380 in test [17]; 312 in test [18]; 284 in test [19]; 272 in [20]. In test [21], the equilibrium dissociation constant (Kd) (in general, the constant that tells how readily two partners part at equilibrium) came out at 4.7 pM.
